Source: the Human Domainome abundance scans (Beltran et al. 2025)
± gives the uncertainty stated by the source.

B1: Zinc finger homeobox protein 4, residues 2183 to 2238; numbered along this chain, Q86UP3 (parent)
chain: SSRTRFTDYQLRVLQDFFDTNAYPKDDEIEQLSTVLNLPTRVIVVWFQNARQKARK
B2: SWI/SNF complex subunit SMARCC2, residues 599 to 641; numbered along this chain, Q8TAQ2 (parent)
chain: REWTEQETLLLLEALEMYKDDWNKVSEHVGSRTQDECILHFLR

Variants of: B1
Test: abundance fitness (aPCA) (normalised: wild type 0, dead -1); higher = more abundant; growth selection in yeast, the domain comes from the species named
Details: Homo sapiens

Abundance fitness: each site, then its substitutions
K56: S -0.366 ± 0.15, L -0.33 ± 0.37, Q -0.178 ± 0.27, M -0.079 ± 0.24, I -0.238 ± 0.38, P 0.04 ± 0.38, T 0.029 ± 0.24, N -0.248 ± 0.18, Y 0.061 ± 0.21, R -0.188 ± 0.14

Variants of: B2
Test: as above
Details: Homo sapiens

Abundance fitness, by site and new letter:
L10: D -0.224 ± 0.19, E 0.346 ± 0.27, T -0.226 ± 0.096, G -0.171 ± 0.1, I -0.35 ± 0.097, N -0.195 ± 0.099, H -0.115 ± 0.086, F -0.27 ± 0.13, A -0.424 ± 0.11, S -0.009 ± 0.064, P -0.422 ± 0.23, Y -0.024 ± 0.1, M 0.03 ± 0.25, R -0.208 ± 0.079, K 0.028 ± 0.11, W -0.325 ± 0.13, V 0.029 ± 0.081, C -0.057 ± 0.15, Q -0.018 ± 0.14
Y18: C -0.501 ± 0.11, Q -0.478 ± 0.11, I -0.152 ± 0.15, P -0.637 ± 0.091, R -0.626 ± 0.084, S -0.286 ± 0.071, V -0.419 ± 0.092, H 0.106 ± 0.1, G -0.163 ± 0.073, M -0.48 ± 0.15, W -0.093 ± 0.1, N -0.003 ± 0.12, A -0.375 ± 0.1, L -0.731 ± 0.14, T -0.383 ± 0.067, D -0.283 ± 0.11, F -0.417 ± 0.17
E16: M -0.439 ± 0.1, H -0.294 ± 0.29, G -0.152 ± 0.075, Y -0.54 ± 0.11, L -0.698 ± 0.11, K -0.059 ± 0.13, R 0.062 ± 0.06, T -0.091 ± 0.084, I -0.759 ± 0.15, P -0.018 ± 0.091, S -0.301 ± 0.084, V -0.501 ± 0.096, Q -0.186 ± 0.1, F -0.372 ± 0.15
D21: E -0.158 ± 0.071, H -0.408 ± 0.084, M -0.747 ± 0.3, K -0.065 ± 0.18, A -0.172 ± 0.095, G -0.315 ± 0.1
E13: W -0.697 ± 0.19, A -0.028 ± 0.081, D -0.182 ± 0.11, T -0.181 ± 0.079, S -0.304 ± 0.071, V -0.469 ± 0.089, L -0.598 ± 0.086, G -0.215 ± 0.074, M -0.222 ± 0.099, F -0.887 ± 0.27, R -0.172 ± 0.067, I -0.742 ± 0.25, Q -0.34 ± 0.093, H -0.264 ± 0.17, N -0.415 ± 0.15
T8: F -0.224 ± 0.14, H 0.291 ± 0.1, V 0.02 ± 0.082, L -0.001 ± 0.082, A 0.109 ± 0.074, K 0.075 ± 0.087, M 0.124 ± 0.22, Q 0.316 ± 0.069, E 0.099 ± 0.12, W -0.205 ± 0.076, N 0.287 ± 0.2, D -0.177 ± 0.33, S -0.102 ± 0.065, P -0.843 ± 0.15, R 0.354 ± 0.054, I 0.046 ± 0.099, C -0.006 ± 0.12, G 0.156 ± 0.093
L11: N -0.575 ± 0.09, W -0.619 ± 0.12, Q -0.556 ± 0.12, T -0.412 ± 0.091, D -0.801 ± 0.16, R -0.635 ± 0.14, M -0.357 ± 0.17, I -0.564 ± 0.28, A -0.364 ± 0.085, P -1.19 ± 0.38, C -0.17 ± 0.1, K -0.588 ± 0.25, H -0.457 ± 0.21, E -0.628 ± 0.13, S -0.788 ± 0.14
L12: K 0.204 ± 0.26, C -0.351 ± 0.33, W -0.145 ± 0.1, S -0.169 ± 0.2
W3: H -0.058 ± 0.29, S -0.317 ± 0.1, N -0.226 ± 0.13, E -0.431 ± 0.16, G -0.424 ± 0.13, T -0.202 ± 0.15, P -0.045 ± 0.26, D 0.1 ± 0.12, Q -0.247 ± 0.17, C -0.518 ± 0.19, L -0.168 ± 0.075, V -0.203 ± 0.23, I -0.275 ± 0.41, A -0.539 ± 0.25, Y -0.354 ± 0.23, M -0.181 ± 0.14, K 0.681 ± 0.43
A14: V -1.08 ± 0.17, T -0.864 ± 0.16, R -0.741 ± 0.094, P -0.987 ± 0.21, H -1.05 ± 0.2, K -0.844 ± 0.14, L -0.778 ± 0.084, E -0.776 ± 0.3, Q -0.797 ± 0.27, N -0.57 ± 0.28, C -0.804 ± 0.16, G 0.062 ± 0.064, F -1.05 ± 0.21, D -0.806 ± 0.45, M -0.991 ± 0.17, S -0.181 ± 0.067, W -1.39 ± 0.24
E2: P 0.278 ± 0.12, K 0.344 ± 0.17, L 0.21 ± 0.071, N 0.317 ± 0.092, T 0.414 ± 0.076, G 0.184 ± 0.095, Y 0.42 ± 0.16, F -0.463 ± 0.28, V 0.247 ± 0.11, D 0.56 ± 0.11, A 0.077 ± 0.058, M 0.135 ± 0.18, Q 0.403 ± 0.14, C -0.52 ± 0.18, S 0.37 ± 0.076, H 0.287 ± 0.074, R 0.165 ± 0.061
L9: D -0.093 ± 0.09, H 0.247 ± 0.066, P -0.307 ± 0.072, V -0.023 ± 0.085, E -0.016 ± 0.1, C 0.134 ± 0.093, K 0.308 ± 0.091, W -0.118 ± 0.094, N 0.099 ± 0.073, G 0.147 ± 0.074, F -0.16 ± 0.11, I 0.11 ± 0.096, A 0.142 ± 0.064, Y -0.024 ± 0.094, R 0.168 ± 0.056, S 0.144 ± 0.055, M 0.2 ± 0.061, T 0.243 ± 0.059, Q 0.271 ± 0.07
R1: K 0.35 ± 0.12, E 0.251 ± 0.11, Y 0.033 ± 0.095, D 0.232 ± 0.092, M 0.298 ± 0.12, L 0.094 ± 0.083, I 0.382 ± 0.083, C 0.225 ± 0.075, A 0.244 ± 0.084, F 0.36 ± 0.11, V 0.316 ± 0.067, G 0.142 ± 0.057, Q 0.526 ± 0.23, H -0.26 ± 0.23, T 0.287 ± 0.081, P -0.025 ± 0.18
T4: S 0.056 ± 0.067, M 0.142 ± 0.12, I 0.029 ± 0.24, A -0.309 ± 0.084, E -0.042 ± 0.13, G -0.794 ± 0.24, N 0.18 ± 0.092, R -0.305 ± 0.11, Y -0.307 ± 0.31, L -0.247 ± 0.1, W -0.623 ± 0.14, D -0.608 ± 0.19, C -0.705 ± 0.17, F -0.32 ± 0.45, V -0.552 ± 0.081
Q6: C -0.394 ± 0.15, D -0.133 ± 0.09, P 0.026 ± 0.069, N 0.046 ± 0.18, I -0.04 ± 0.37, W -0.025 ± 0.1, G 0.002 ± 0.089, T -0.191 ± 0.11, R -0.003 ± 0.069, M 0.144 ± 0.073, Y -0.206 ± 0.31, H -0.282 ± 0.15, K -0.167 ± 0.12, E -0.485 ± 0.16, S -0.015 ± 0.076, L -0.116 ± 0.068, F -0.211 ± 0.13, A 0.117 ± 0.074, V -0.117 ± 0.095
E7: D -0.557 ± 0.17, N -0.948 ± 0.28, F -1.44 ± 0.41, K -0.921 ± 0.19, A -0.448 ± 0.19, G -0.756 ± 0.12, P -0.804 ± 0.11, V -0.815 ± 0.24, Q 0.1 ± 0.13, R -0.887 ± 0.092, L -0.833 ± 0.19, T -0.745 ± 0.2, W -1.27 ± 0.45, Y -1.26 ± 0.23
E5: S -0.506 ± 0.078, N -0.362 ± 0.097, W -0.201 ± 0.2, A -0.227 ± 0.11, R -0.339 ± 0.091, L -0.442 ± 0.086, V -0.189 ± 0.063, T 0.004 ± 0.092, M -0.026 ± 0.16, D -0.692 ± 0.32, I -0.178 ± 0.12, P -0.39 ± 0.079, Q 0.164 ± 0.24, C -0.104 ± 0.074, F -0.347 ± 0.13, H -0.153 ± 0.084, Y 0.116 ± 0.12
K19: H -0.272 ± 0.074, A -0.26 ± 0.074, I -0.303 ± 0.1, R -0.115 ± 0.069, G -0.235 ± 0.06, E 0.019 ± 0.091, P -0.052 ± 0.074, C -0.314 ± 0.073, N 0.29 ± 0.14, S -0.287 ± 0.065, M -0.332 ± 0.38, L -0.458 ± 0.065, T -0.003 ± 0.083, D -0.143 ± 0.079, W -0.526 ± 0.11, Y -0.427 ± 0.15, F -0.151 ± 0.11, V -0.256 ± 0.058
D20: G 0.005 ± 0.064, C -0.15 ± 0.078, N -0.031 ± 0.13, R 0.289 ± 0.061, T -0.412 ± 0.12, F -0.357 ± 0.12, S 0.027 ± 0.088, Q 0.244 ± 0.062, A -0.181 ± 0.071, W -0.237 ± 0.076, Y -0.072 ± 0.3, I -0.777 ± 0.4, K 0.054 ± 0.11, L -0.448 ± 0.075, M -0.361 ± 0.36, P 0.055 ± 0.088
M17: A -0.224 ± 0.071, T -0.054 ± 0.12, L 0.052 ± 0.074, G -0.154 ± 0.072, P -0.501 ± 0.16, S -0.167 ± 0.086, K 0.077 ± 0.084, V -0.017 ± 0.079, C -0.283 ± 0.17, N 0.027 ± 0.12, D -0.035 ± 0.1, H -0.348 ± 0.19, Q 0.013 ± 0.072, W -0.118 ± 0.098, R 0.118 ± 0.061, Y -0.084 ± 0.11
L15: W 0.04 ± 0.073, R 0.454 ± 0.06, Y 0.278 ± 0.081, E 0.241 ± 0.065, A 0.409 ± 0.064, K 0.586 ± 0.096, D 0.232 ± 0.26, C 0.087 ± 0.1, T 0.301 ± 0.095, V 0.336 ± 0.064, H 0.551 ± 0.098, M 0.436 ± 0.093, F -0.211 ± 0.36, G -0.067 ± 0.076, N -0.017 ± 0.13
